T1: NiV-G-Fc, a fusion construct between the ectodomain of NiV-G and the Fc region of human IgG1 (Nipah virus, UniProt Q9IH62 71-602)
T1 sequence: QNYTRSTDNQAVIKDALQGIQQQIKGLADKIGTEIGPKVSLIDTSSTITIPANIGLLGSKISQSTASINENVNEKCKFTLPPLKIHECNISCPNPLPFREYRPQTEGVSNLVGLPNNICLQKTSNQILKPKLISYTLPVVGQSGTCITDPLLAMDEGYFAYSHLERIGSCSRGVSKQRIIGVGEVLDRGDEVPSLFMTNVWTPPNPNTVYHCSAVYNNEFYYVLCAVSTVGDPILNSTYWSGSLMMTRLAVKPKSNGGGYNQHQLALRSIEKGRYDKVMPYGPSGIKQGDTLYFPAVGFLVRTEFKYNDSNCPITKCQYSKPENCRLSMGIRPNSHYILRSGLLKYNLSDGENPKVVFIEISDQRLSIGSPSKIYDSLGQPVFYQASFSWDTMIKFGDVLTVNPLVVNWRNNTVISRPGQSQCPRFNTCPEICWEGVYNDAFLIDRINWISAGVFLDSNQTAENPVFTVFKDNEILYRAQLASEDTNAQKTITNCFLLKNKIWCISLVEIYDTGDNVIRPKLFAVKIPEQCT

T2: EphB4-Fc (UniProt P54760 16-539)
T2 sequence (looked up): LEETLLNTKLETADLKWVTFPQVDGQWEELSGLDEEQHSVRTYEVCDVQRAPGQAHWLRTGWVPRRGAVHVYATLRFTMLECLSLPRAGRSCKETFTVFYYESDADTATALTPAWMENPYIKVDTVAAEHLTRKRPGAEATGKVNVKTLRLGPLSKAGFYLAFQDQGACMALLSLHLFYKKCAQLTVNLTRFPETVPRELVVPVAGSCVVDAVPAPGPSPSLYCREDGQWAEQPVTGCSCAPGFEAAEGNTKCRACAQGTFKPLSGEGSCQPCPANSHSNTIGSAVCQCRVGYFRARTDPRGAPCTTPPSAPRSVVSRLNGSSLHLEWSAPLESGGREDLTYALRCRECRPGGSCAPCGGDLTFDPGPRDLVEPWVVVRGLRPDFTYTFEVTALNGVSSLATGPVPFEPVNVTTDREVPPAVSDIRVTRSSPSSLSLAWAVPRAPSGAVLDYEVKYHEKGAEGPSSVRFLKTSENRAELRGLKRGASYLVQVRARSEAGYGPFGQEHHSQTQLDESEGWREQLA

B1: ephrinB2-Fc (soluble Fc-fusion ephrin protein, purchased) (Fc fusion)
chain: RSIVLEPIYWNSSNSKFLPGQGLVLYPQIGDKLDIICPKVDSKTVGQYEYYKVYMVDKDQADRCTIKKENTPLLNCARPDQDVKFTIKFQEFSPNLWGLEFQKNKDYYIISTSNGSLEGLDNQEGGVCQTRAMKILMKVGQDASSAGSARNHGPTRRPELEAGTNGRSSTTSPFVKPNPGSSTDGNSAGHSGNNLLGSEVA
B2: ephrinB2-Fc (soluble Fc-fusion ephrin protein, purchased) (Fc fusion)
chain: RSIVLEPIYWNSSNSKFLPGQGLVLYPQIGDKLDIICPKVDSKTVGQYEYYKVYMVDKDQADRCTIKKENTPLLNCARPDQDVKFTIKFQEFSPNLWGLEFQKNKDYYIISTSNGSLEGLDNQEGGVCQTRAMKILMKVGQDASSAGSARNHGPTRRPELEAGTNGRSSTTSPFVKPNPGSSTDGNSAGHSGNNLLGSEVA
modifications: Ectodomain only. The human IgG1 Fc carrier, which makes the fusion a disulfide-linked dimer, is left out. Species is inferred: the R&D Systems ephrin-B2-Fc of that period was recalled as the mouse …
B3: ephrinB3-Fc (soluble Fc-fusion ephrin protein, purchased) (Fc fusion)
chain: LSLEPVYWNSANKRFQAEGGYVLYPQIGDRLDLLCPRARPPGPHSSPNYEFYKLYLVGGAQGRRCEAPPAPNLLLTCDRPDLDLRFTIKFQEYSPNLWGHEFRSHHDYYIIATSDGTREGLESLQGGVCLTRGMKVLLRVGQSPRGGAVPRKPVSEMPMERDRGAAHSLEPGKENLPGDPTSNATSRGAEGPLPPPSMP
notes: source: bought: R & D Systems
B4: human ephrinB3 stably expressed on CHO-pgsA745 cells (CHO-B3) (natural protein, UniProt Q15768 28-340, looked up)
chain: LSLEPVYWNSANKRFQAEGGYVLYPQIGDRLDLLCPRARPPGPHSSPNYEFYKLYLVGGAQGRRCEAPPAPNLLLTCDRPDLDLRFTIKFQEYSPNLWGHEFRSHHDYYIIATSDGTREGLESLQGGVCLTRGMKVLLRVGQSPRGGAVPRKPVSEMPMERDRGAAHSLEPGKENLPGDPTSNATSRGAEGPLPPPSMPAVAGAAGGLALLLLGVAGAGGAMCWRRRRAKPSESRHPGPGSFGRGGSLGLGGGGGMGPREAEPGELGIALRGGGAADPPFCPHYEKVSGDYGHPVYIVQDGPPQSPPNIYYKV
notes: also called cell surface ephrinB3

How the values were obtained:
[1] = target: T1, NiV-G-Fc, a fusion construct between …; assay: SPR; BIAcore 3000; […]; 1:1 Langmuir model; conditions: both partners purified
[2] = target: T2, EphB4-Fc; assay: SPR; unpublished data: BIAcore control, EphB4-Fc binding to ephrinB2-Fc; who was immobilised is not stated; conditions: both partners purified
[3] = target: T1, NiV-G-Fc, a fusion construct between …; assay: flow cytometry on cells; conditions: one partner purified

| Binder | koff [1] | other results |
| --- | --- | --- |
| B1 | 0.000106 s⁻¹ | – |
| B2 | – | Kd [2]: 0.37 nM |
| B3 | 0.00194 s⁻¹ | – |
| B4 | – | Kd [3]: 0.58 nM |
